Consider seven sequences from the supplement of paper PMC11246515.

A short description of this data set: total protein half-life in vivo (active degradation + dilution); higher = more stable protein.
[1] abbreviates: E. coli NCM3722 delta-clpP delta-lon delta-hslV, growth: N-lim chemostat, doubling time 6 h.
[2] abbreviates: E. coli NCM3722 delta-hslV, growth: N-lim chemostat, doubling time 6 h.
Setting [3] is: E. coli NCM3722 delta-lon, growth: N-lim chemostat, doubling time 6 h.
[4] abbreviates: E. coli NCM3722 delta-smpB, growth: N-lim chemostat, doubling time 6 h.
[5] abbreviates: wild type E. coli NCM3722, growth: C-lim chemostat, doubling time 3 h.
Where [6] appears, read: wild type E. coli NCM3722, growth: C-lim chemostat, doubling time 6 h.
Where [7] appears, read: wild type E. coli NCM3722, growth: C-lim chemostat, doubling time 12 h.
[8] abbreviates: wild type E. coli NCM3722, growth: N-lim chemostat, doubling time 6 h.
The mark [9] stands for this setting: wild type E. coli NCM3722, growth: N-lim chemostat, doubling time 12 h.
Where [10] appears, read: wild type E. coli NCM3722, growth: P-lim chemostat, doubling time 6 h.
Setting [11] is: wild type E. coli NCM3722, growth: P-lim chemostat, doubling time 12 h.
Where [12] appears, read: E. coli NCM3722 delta-clpP, growth: N-lim chemostat, doubling time 6 h.

± gives the standard deviation of the averaged measurements.

In the case of “MKQPGEELQETLTELDDRAVVDYLIKNPEFFIRNARAVEAIRVPHPVRGTVSLVEWHMARARNHIHVLEENMALLMEQAIANEGLFYRLLYLQRSLTAASSLDDMLMRFHRWARDLGLAGASLRLFPDRWRLGAPSNHTHLALSRQSFEPLRIQRLGQEQHYLGPLNGPELLVVLPEAKAVGSVAMSMLGSDADLGVVLFTSRDASHYQQGQGTQLLHEIALMLPELLERWIERV”, the “total protein half-life in vivo” value is 5.46 ± 0.28 h under setting [1]; 1.73 ± 0.75 h under setting [2]; 1.21 ± 0.07 h under setting [3]; 0.944 ± 0.016 h under setting [4]; 1.4 ± 0.051 h under setting [5]; 2.35 ± 0.43 h under setting [6]. For the same sequence, the “total protein half-life in vivo” value under setting [7] was found to be 2.74 ± 0.45 h; the “total protein half-life in vivo” value under setting [8] came out at 1.33 h; the “total protein half-life in vivo” value under setting [9] came out at 1.56 h; the “total protein half-life in vivo” value under setting [10] was 2.18 ± 0.26 h; the “total protein half-life in vivo” value under setting [11] worked out at 3.12 ± 1 h.

Take “MSVSAFNRRWAAVILEALTRHGVRHICIAPGSRSTPLTLAAAENSAFIHHTHFDERGLGHLALGLAKVSKQPVAVIVTSGTAVANLYPALIEAGLTGEKLILLTADRPPELIDCGANQAIRQPGMFASHPTHSISLPRPTQDIPARWLVSTIDHALGTLHAGGVHINCPFAEPLYGEMDDTGLSWQQRLGDWWQDDKPWLREAPRLESEKQRDWFFWRQKRGVVVAGRMSAEEGKKVALWAQTLGWPLIGDVLSQTGQPLPCADLWLGNAKATSELQQAQIVVQLGSSLTGKRLLQWQASCEPEEYWIVDDIEGRLDPAHHRGRRLIANIADWLELHPAEKRQPWCVEIPRLAEQAMQAVIARRDAFGEAQLAHRICDYLPEQGQLFVGNSLVVRLIDALSQLPAGYPVYSNRGASGIDGLLSTAAGVQRASGKPTLAIVGDLSALYDLNALALLRQVSAPLVLIVVNNNGGQIFSLLPTPQSERERFYLMPQNVHFEHAAAMFELKYHRPQNWQELETAFADAWRTPTTTVIEMVVNDTDGAQTLQQLLAQVSHL”: the “total protein half-life in vivo” value is, setting by setting: under setting [1], 6.1 ± 0.64 h; under setting [12], 5.37 ± 0.1 h; under setting [2], 5.38 ± 0.24 h; under setting [4], 5.01 ± 0.12 h; under setting [5], 3.27 ± 0.59 h; under setting [6], 6.66 ± 0.06 h. Moreover, the “total protein half-life in vivo” value is, setting by setting: under setting [7], 12.2 ± 1.8 h; under setting [8], 5.89 ± 0.76 h; under setting [9], 12.3 ± 1.8 h; under setting [10], 6.81 ± 0.65 h.

Turning to “MRHIFQRLLPRRLWLAGLPCLALLGCVQNHNKPAIDTPAEEKIPVYQLADYLSTECSDIWALQGKSTETNPLYWLRAMDCADRLMPAQSRQQARQYDDGSWQNTFKQGILLADAKITPYERRQLVARIEALSTEIPAQVRPLYQLWRDGQALQLQLAEERQRYSKLQQSSDSELDTLRQQHHVLQQQLELTTRKLENLTDIERQLSTRKPAGNFSPDTPHESEKPAPSTHEVTPDEP [P0AD44]”, the “total protein half-life in vivo” value under setting [1] was 6.11 ± 0.099 h; the “total protein half-life in vivo” value under setting [12] was found to be 6.44 ± 0.17 h; the “total protein half-life in vivo” value under setting [2] was determined as 6.18 ± 0.37 h; the “total protein half-life in vivo” value under setting [3] worked out at 6.9 ± 0.22 h; the “total protein half-life in vivo” value under setting [4] came out at 6.12 ± 0.2 h; the “total protein half-life in vivo” value under setting [5] amounted to 3.34 ± 0.092 h. Moreover, the “total protein half-life in vivo” value is 6.14 ± 0.27 h under setting [6]; 13.1 ± 0.57 h under setting [7]; 6.28 ± 1 h under setting [8]; 14 ± 1.2 h under setting [9]; 12.2 ± 3.1 h under setting [11].

Turning to “MTQQITLIKDKILSDNYFTLHNITYDLTRKDGEVIRHKREVYDRGNGATILLYNTKKKTVVLIRQFRVATWVNGNESGQLIESCAGLLDNDEPEVCIRKEAIEETGYEVGEVRKLFELYMSPGGVTELIHFFIAEYSDNQRANAGGGVEDEDIEVLELPFSQALEMIKTGEIRDGKTVLLLNYLQTSHLMD”, the “total protein half-life in vivo” value reads like this: under setting [1], 4.25 h; under setting [12], 3.023 ± 0.017 h; under setting [2], 2.96 ± 0.066 h; under setting [3], 4.03 ± 0.41 h; under setting [4], 3.07 ± 1 h; under setting [5], 2.824 ± 0.026 h. In addition, the “total protein half-life in vivo” value turned out to be 4.44 h under setting [6]; 6.27 ± 2.4 h under setting [7]; 3.15 ± 0.25 h under setting [8]; 4.71 h under setting [9]; 2.31 h under setting [10]; 4.47 ± 0.2 h under setting [11].

As to “MIKWPWKVQESAHQTALPWQEALSIPLLTCLTEQEQSKLVTLAERFLQQKRLVPLQGFELDSLRSCRIALLFCLPVLELGLEWLDGFHEVLIYPAPFVVDDEWEDDIGLVHNQRIVQSGQSWQQGPIVLNWLDIQDSFDASGFNLIIHEVAHKLDTRNGDRASGVPFIPLREVAGWEHDLHAAMNNIQEEIELVGENAASIDAYAASDPAECFAVLSEYFFSAPELFAPRFPSLWQRFCQFYQQDPLQRLHHANDTDSFSATNVH”, the “total protein half-life in vivo” value reads like this: under setting [1], 4.48 ± 0.42 h; under setting [12], 3.08 ± 0.31 h; under setting [2], 1.36 ± 0.03 h; under setting [3], 1.79 ± 0.075 h; under setting [4], 1.51 ± 0.037 h; under setting [5], 1.16 ± 0.016 h. Besides, the “total protein half-life in vivo” value under setting [6] amounted to 1.87 ± 0.28 h; the “total protein half-life in vivo” value under setting [7] is 2.19 ± 0.13 h; the “total protein half-life in vivo” value under setting [8] was 1.53 h; the “total protein half-life in vivo” value under setting [9] turned out to be 2.44 ± 0.53 h; the “total protein half-life in vivo” value under setting [10] is 1.76 ± 0.39 h; the “total protein half-life in vivo” value under setting [11] worked out at 3.29 ± 0.75 h.

On to “MKQIRLLAQYYVDLMMKLGLVRFSMLLALALVVLAIVVQMAVTMVLHGQVESIDVIRSIFFGLLITPWAVYFLSVVVEQLEESRQRLSRLVQKLEEMRERDLSLNVQLKDNIAQLNQEIAVREKAEAELQETFGQLKIEIKEREETQIQLEQQSSFLRSFLDASPDLVFYRNEDKEFSGCNRAMELLTGKSEKQLVHLKPADVYSPEAAAKVIETDEKVFRHNVSLTYEQWLDYPDGRKACFEIRKVPYYDRVGKRHGLMGFGRDITERKRYQDALERASRDKTTFISTISHELRTPLNGIVGLSRILLDTELTAEQEKYLKTIHVSAVTLGNIFNDIIDMDKMERRKVQLDNQPVDFTSFLADLENLSALQAQQKGLRFNLEPTLPLPHQVITDGTRLRQILWNLISNAVKFTQQGQVTVRVRYDEGDMLHFEVEDSGIGIPQDELDKIFAMYYQVKDSHGGKPATGTGIGLAVSRRLAKNMGGDITVTSEQGKGSTFTLTIHAPSVAEEVDDAFDEDDMPLPALNVLLVEDIELNVIVARSVLEKLGNSVDVAMTGKAALEMFKPGEYDLVLLDIQLPDMTGLDISRELTKRYPREDLPPLVALTANVLKDKQEYLNAGMDDVLSKPLSVPALTAMIKKFWDTQDDEESTVTTEENSKSEALLDIPMLEQYLELVGPKLITDGLAVFEKMMPGYVSVLESNLTAQDKKGIVEEGHKIKGAAGSVGLRHLQQLGQQIQSPDLPAWEDNVGEWIEEMKEEWRHDVEVLKAWVAKATKK [P0AEC3]”, for which the “total protein half-life in vivo” value was found to be 5.863 ± 0.04 h under setting [1]; 6.27 ± 0.077 h under setting [12]; 5.797 ± 0.042 h under setting [2]; 5.21 ± 0.38 h under setting [3]; 5.568 ± 0.012 h under setting [4]; 3.09 ± 0.14 h under setting [5]. Moreover, the “total protein half-life in vivo” value is, setting by setting: under setting [6], 5.88 ± 0.086 h; under setting [7], 10.9 ± 0.17 h; under setting [8], 5.54 ± 0.18 h; under setting [9], 10.5 ± 1 h; under setting [10], 5.69 ± 0.2 h; under setting [11], 11.4 ± 0.22 h.

In the case of “MTQGAVKTTGKRSRAVSAKKKAILSAALDTFSQFGFHGTRLEQIAELAGVSKTNLLYYFPSKEALYIAVLRQILDIWLAPLKAFREDFAPLAAIKEYIRLKLEVSRDYPQASRLFCMEMLAGAPLLMDELTGDLKALIDEKSALIAGWVKSGKLAPIDPQHLIFMIWASTQHYADFAPQVEAVTGATLRDEVFFNQTVENVQRIIIEGIRPR [P0ACU2]”, the “total protein half-life in vivo” value under setting [1] stood at 6.17 ± 0.95 h; the “total protein half-life in vivo” value under setting [12] turned out to be 5.74 ± 0.36 h; the “total protein half-life in vivo” value under setting [3] came out at 5.5 ± 0.84 h; the “total protein half-life in vivo” value under setting [4] worked out at 4.92 ± 0.71 h; the “total protein half-life in vivo” value under setting [5] came to 2.31 ± 0.54 h; the “total protein half-life in vivo” value under setting [6] came out at 5.35 h. Besides, the “total protein half-life in vivo” value under setting [7] turned out to be 12.1 ± 1.9 h; the “total protein half-life in vivo” value under setting [8] was determined as 5.39 ± 0.83 h; the “total protein half-life in vivo” value under setting [9] is 10.8 ± 1.4 h; the “total protein half-life in vivo” value under setting [10] was 4.61 ± 0.38 h; the “total protein half-life in vivo” value under setting [11] amounted to 9.98 ± 0.25 h.
